Source: US20030215792A1

Target: CXCR4 receptor on cultivated primary astrocytes of rats (rat) (UniProt O08565)
Test: cell-based or functional assay

Sequence of UniProt O08565 (O08565 whole entry): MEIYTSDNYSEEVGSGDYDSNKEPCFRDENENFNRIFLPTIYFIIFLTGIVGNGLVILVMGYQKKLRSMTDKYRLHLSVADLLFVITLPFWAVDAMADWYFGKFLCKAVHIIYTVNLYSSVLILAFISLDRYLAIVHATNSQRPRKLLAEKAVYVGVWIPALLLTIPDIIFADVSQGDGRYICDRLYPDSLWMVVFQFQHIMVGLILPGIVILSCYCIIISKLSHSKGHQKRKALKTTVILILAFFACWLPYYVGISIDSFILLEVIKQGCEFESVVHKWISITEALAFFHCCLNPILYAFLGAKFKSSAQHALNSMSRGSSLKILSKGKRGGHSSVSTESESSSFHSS

decrease in intracellular calcium outflow in cultivated astrocytes after 5 minutes' pre-incubation with monoclonal antibody 12G5: 50%
Substance: SDF-1α (R&D Systems, Wiesbaden) (ligand)
